B1: GpH7-A5/GpH7-B3 variant G236_15Y/GpL16-k0 (antibody, human IgG1, kappa)
heavy 1: not shown
heavy 2: not shown
light: DIVMTQSPLSLPVTPGEPASISCQASESLVHSNRNTYLHWYLQKPGQSPQLLIYKVSNRFSGVPDRFSGSGSGTDFTLKISRVEAEDVGVYYCSQNTHVPPTFGQGTKVEIERTVAAPSVFIFPPSDEQLKSGTASVVCLLNNFYPREAKVQWKVDNALQSGNSQESVTEQDSKDSTYSLSSTLTLSKADYEKHKVYACEVTHQGLSSPVTKSFNRGEC
notes: He Ab: alteration in one H chain only; also called He Ab
B2: GpH7-A5/GpH7-B3 variant S267_01G/GpL16-k0 (antibody, human IgG1, kappa)
heavy 1: not shown
heavy 2: not shown
light: B1 light
notes: heterodimerized IgG1, mutation in one H chain only; also called He Ab
B3: GpH7-A5/GpH7-B3 variant H268_01G/GpL16-k0 (antibody, human IgG1, kappa)
heavy 1: not shown
heavy 2: not shown
light: B1 light
notes: as for B2
B4: GpH7-A5/GpH7-B3 variant L235_05P/GpL16-k0 (antibody, human IgG1, kappa)
heavy 1: not shown
heavy 2: not shown
light: B1 light
notes: as for B1
B5: GpH7-A5/GpH7-B3 variant H268_09D/GpL16-k0 (antibody, human IgG1, kappa)
heavy 1: not shown
heavy 2: not shown
light: B1 light
notes: as for B2
B6: GpH7-A5/GpH7-B3 variant P271_09D/GpL16-k0 (antibody, human IgG1, kappa)
heavy 1: not shown
heavy 2: not shown
light: B1 light
notes: as for B2
B7: GpH7-A5/GpH7-B3 variant G236_20W/GpL16-k0 (antibody, human IgG1, kappa)
heavy 1: not shown
heavy 2: not shown
light: B1 light
notes: as for B1
B8: GpH7-A5/GpH7-B3 variant L234_16H/GpL16-k0 (antibody, human IgG1, kappa)
heavy 1: not shown
heavy 2: not shown
light: B1 light
notes: as for B1
B9: GpH7-A5/GpH7-B3 variant L234_19Q/GpL16-k0 (antibody, human IgG1, kappa)
heavy 1: not shown
heavy 2: not shown
light: B1 light
notes: as for B1
B10: GpH7-A5/GpH7-B3 variant L234_11K/GpL16-k0 (antibody, human IgG1, kappa)
heavy 1: not shown
heavy 2: not shown
light: B1 light
notes: as for B1
B11: GpH7-A5/GpH7-B3 variant H268_05P/GpL16-k0 (antibody, human IgG1, kappa)
heavy 1: not shown
heavy 2: not shown
light: B1 light
notes: as for B2
B12: GpH7-A5/GpH7-B3 variant L235_03V/GpL16-k0 (antibody, human IgG1, kappa)
heavy 1: not shown
heavy 2: not shown
light: B1 light
notes: as for B1
B13: GpH7-A5/GpH7-B3 variant K326_05P/GpL16-k0 (antibody, human IgG1, kappa)
heavy 1: not shown
heavy 2: not shown
light: B1 light
notes: as for B2
B14: GpH7-A5/GpH7-B3 variant K326_04F/GpL16-k0 (antibody, human IgG1, kappa)
heavy 1: not shown
heavy 2: not shown
light: B1 light
notes: as for B2
B15: GpH7-A5/GpH7-B3 variant H268_10E/GpL16-k0 (antibody, human IgG1, kappa)
heavy 1: not shown
heavy 2: not shown
light: B1 light
notes: as for B2
B16: GpH7-A5/GpH7-B3 variant L234_07I/GpL16-k0 (antibody, human IgG1, kappa)
heavy 1: not shown
heavy 2: not shown
light: B1 light
notes: as for B1
B17: GpH7-A5/GpH7-B3 variant L235_18N/GpL16-k0 (antibody, human IgG1, kappa)
heavy 1: not shown
heavy 2: not shown
light: B1 light
notes: as for B1
B18: GpH7-A5/GpH7-B3 variant L234_12R/GpL16-k0 (antibody, human IgG1, kappa)
heavy 1: not shown
heavy 2: not shown
light: B1 light
notes: as for B1
B19: GpH7-A5/GpH7-B3 variant H268_06M/GpL16-k0 (antibody, human IgG1, kappa)
heavy 1: not shown
heavy 2: not shown
light: B1 light
notes: as for B1
B20: GpH7-A5/GpH7-B3 variant L235_13S/GpL16-k0 (antibody, human IgG1, kappa)
heavy 1: not shown
heavy 2: not shown
light: B1 light
notes: as for B1
B21: GpH7-A5/GpH7-B3 variant K326_02A/GpL16-k0 (antibody, human IgG1, kappa)
heavy 1: not shown
heavy 2: not shown
light: B1 light
notes: as for B2
B22: GpH7-A5/GpH7-B3 variant L234_05P/GpL16-k0 (antibody, human IgG1, kappa)
heavy 1: not shown
heavy 2: not shown
light: B1 light
notes: as for B1
B23: GpH7-A5/GpH7-B3 variant H268_18N/GpL16-k0 (antibody, human IgG1, kappa)
heavy 1: not shown
heavy 2: not shown
light: B1 light
notes: as for B2
B24: GpH7-A5/GpH7-B3 variant L235_14T/GpL16-k0 (antibody, human IgG1, kappa)
heavy 1: not shown
heavy 2: not shown
light: B1 light
notes: as for B1
B25: GpH7-A5/GpH7-B3 variant K326_03V/GpL16-k0 (antibody, human IgG1, kappa)
heavy 1: not shown
heavy 2: not shown
light: B1 light
notes: as for B2
B26: GpH7-A5/GpH7-B3 variant L235_19Q/GpL16-k0 (antibody, human IgG1, kappa)
heavy 1: not shown
heavy 2: not shown
light: B1 light
notes: as for B1
B27: GpH7-A5/GpH7-B3 variant P271_01G/GpL16-k0 (antibody, human IgG1, kappa)
heavy 1: not shown
heavy 2: not shown
light: B1 light
notes: as for B2
B28: GpH7-A5/GpH7-B3 variant H268_19Q/GpL16-k0 (antibody, human IgG1, kappa)
heavy 1: not shown
heavy 2: not shown
light: B1 light
notes: as for B2
B29: GpH7-A5/GpH7-B3 variant L234_15Y/GpL16-k0 (antibody, human IgG1, kappa)
heavy 1: not shown
heavy 2: not shown
light: B1 light
notes: as for B1
B30: GpH7-A5/GpH7-B3 variant L235_01G/GpL16-k0 (antibody, human IgG1, kappa)
heavy 1: not shown
heavy 2: not shown
light: B1 light
notes: as for B1
B31: GpH7-A5/GpH7-B3 variant L234_03V/GpL16-k0 (antibody, human IgG1, kappa)
heavy 1: not shown
heavy 2: not shown
light: B1 light
notes: as for B1
B32: GpH7-A5/GpH7-B3 variant H268_13S/GpL16-k0 (antibody, human IgG1, kappa)
heavy 1: not shown
heavy 2: not shown
light: B1 light
notes: as for B2
B33: GpH7-A5/GpH7-B3 variant G236_16H/GpL16-k0 (antibody, human IgG1, kappa)
heavy 1: not shown
heavy 2: not shown
light: B1 light
notes: as for B1
B34: GpH7-A5/GpH7-B3 variant H268_02A/GpL16-k0 (antibody, human IgG1, kappa)
heavy 1: not shown
heavy 2: not shown
light: B1 light
notes: as for B2
B35: GpH7-A5/GpH7-B3 variant L235_11K/GpL16-k0 (antibody, human IgG1, kappa)
heavy 1: not shown
heavy 2: not shown
light: B1 light
notes: as for B1

How the values were obtained:
[1] = molecular target: T1, FcγRIIIa extracellular domain with C-terminal His tag (human, UniProt P08637 17-208); assay: SPR, relative to GpH7-A5/GpH7-B3/GpL16-k0
T1 construct: extracellular domain; also called 3a; FcgRIIIa

[2] = molecular target: T2, FcγRIIb extracellular domain with C-terminal His tag (human, UniProt P31994 43-217); assay: SPR, relative to GpH7-A5/GpH7-B3/GpL16-k0
T2 construct: extracellular domain; also called 2b; FcgRIIb
T2 sequence (looked up): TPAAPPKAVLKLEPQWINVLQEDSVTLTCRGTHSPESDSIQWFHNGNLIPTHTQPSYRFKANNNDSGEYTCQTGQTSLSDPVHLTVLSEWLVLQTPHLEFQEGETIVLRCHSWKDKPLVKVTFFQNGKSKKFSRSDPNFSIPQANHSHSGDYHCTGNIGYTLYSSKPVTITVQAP

[3] = molecular target: T1, FcγRIIIa extracellular domain with …; assay: SPR; He/Con_3a over He/Con_2b (FcγRIIb)
FcγRIIb = molecular target: T3, FcγRIIb (human, UniProt P31994 43-217); assay: SPR (Biacore), relative binding vs GpH7-A5/GpH7-B3/GpL16-k0
T3 construct: extracellular domain; also called 2b
T3 sequence (looked up): T2 sequence (looked up)

FcγRIIa H [4] = molecular target: T4, FcγRIIa H (human, UniProt P12318 34-217); assay: as above
T4 construct: extracellular domain; also called FcγRIIa type H; 2aH
T4 sequence (looked up): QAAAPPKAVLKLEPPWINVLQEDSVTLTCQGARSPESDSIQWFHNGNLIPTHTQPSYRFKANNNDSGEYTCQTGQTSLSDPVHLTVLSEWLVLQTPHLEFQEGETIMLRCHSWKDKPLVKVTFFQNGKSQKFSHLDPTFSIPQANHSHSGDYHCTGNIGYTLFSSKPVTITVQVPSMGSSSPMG

FcγRIIa H [5] = molecular target: T4, FcγRIIa H; assay: SPR; He/Con_2aH divided by He/Con_2b (FcγRIIb)
Description: The heterodimerized antibodies He Abs in which one of the H chains was introduced with an alteration were assayed for their binding activities to each activating FcγR and inhibitory FcγR according to the method described in Example 4. […] The activating FcγRs in FIGS. 26, 27, 28, and 29 are FcγRIa, FcγRIIa (R), FcγRIIa (H), and FcγRIIIa, respectively.
Analysis of interaction between objective antibody and the FcγR was carried out using Biacore T100 (GE Healthcare). HBS-EP+ (GE Healthcare) was used as the running buffer, and the measurement temperature was set to 25° C. Chips produced by immobilizing the antigen peptide by the amine coupling method to a Series S Sencor Chip CM5 (GE Healthcare), or alternatively, chips produced by allowing preliminarily biotinylated antigen peptides to interact with and immobilize onto a Series S Sensor Chip SA (certified) (GE Healthcare) were used. Antibodies of interest were captured onto an antigen peptide-immobilized chip, and allowed to interact to each FcγR diluted with running buffer. To regenerate and repeatedly use the chip, the antibodies captured on the chip were washed off by reacting 10 mM glycine-HCl, pH 1.5.

T1 sequence (P08637 17-208): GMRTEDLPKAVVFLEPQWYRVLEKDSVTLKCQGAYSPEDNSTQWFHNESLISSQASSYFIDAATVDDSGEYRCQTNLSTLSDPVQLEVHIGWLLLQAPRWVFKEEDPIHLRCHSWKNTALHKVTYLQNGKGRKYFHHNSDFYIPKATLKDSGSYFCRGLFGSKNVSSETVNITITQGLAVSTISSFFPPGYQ

Row | Binder | He/Con_3a [1] [control=100] | He/Con_2b [2] [control=100] | He_3a/2b (IIIa/IIb) [3] [ratio] | He/Con_2b (FcγRIIb) | He/Con_2aH (FcγRIIa H [4]) | He_2aH/2b (IIaH/IIb) (FcγRIIa H [5]) [ratio]
1 | B1 | 121 | 39.5 | 3.06 |  |  | 
2 | B2 |  |  |  | 105 % of control He Ab (=100) | 71.3 % of control He Ab (=100) | 0.68
3 | B3 |  |  |  | 144 % of control He Ab (=100) | 99.2 % of control He Ab (=100) | 0.69
4 | B4 | 71.1 | 54.7 | 1.3 |  |  | 
5 | B5 |  |  |  | 239 % of control He Ab (=100) | 133 % of control He Ab (=100) | 0.55
6 | B6 |  |  |  | 120 % of control He Ab (=100) | 70.1 % of control He Ab (=100) | 0.58
7 | B7 | 135 | 58.2 | 2.33 |  |  | 
8 | B8 | 79.5 | 59.4 | 1.34 |  |  | 
9 | B9 | 79.8 | 60.3 | 1.32 |  |  | 
10 | B10 | 30.5 | 16.2 | 1.88 |  |  | 
11 | B11 |  |  |  | 116 % of control He Ab (=100) | 81.8 % of control He Ab (=100) | 0.7
12 | B12 | 98 | 66.4 | 1.48 |  |  | 
13 | B13 |  |  |  | 126 % of control He Ab (=100) | 98.8 % of control He Ab (=100) | 0.79
14 | B14 |  |  |  | 155 % of control He Ab (=100) | 97 % of control He Ab (=100) | 0.63
15 | B15 |  |  |  | 230 % of control He Ab (=100) | 124 % of control He Ab (=100) | 0.54
16 | B16 | 103 | 80.9 | 1.27 |  |  | 
17 | B17 | 67.3 | 54.9 | 1.23 |  |  | 
18 | B18 | 36.9 | 18.9 | 1.95 |  |  | 

Row | Binder | He/Con_3a [1] [control=100] | He/Con_2b [2] [control=100] | He_3a/2b (IIIa/IIb) [3] [ratio] | He/Con_2b (FcγRIIb) | He/Con_2aH (FcγRIIa H [4]) | He_2aH/2b (IIaH/IIb) (FcγRIIa H [5]) [ratio]
19 | B19 | 80.3 | 65.7 | 1.22 |  |  | 
20 | B20 | 69.6 | 48.2 | 1.44 |  |  | 
21 | B21 |  |  |  | 139 % of control He Ab (=100) | 106 % of control He Ab (=100) | 0.76
22 | B22 | 88.1 | 72.9 | 1.21 |  |  | 
23 | B23 |  |  |  | 156 % of control He Ab (=100) | 112 % of control He Ab (=100) | 0.72
24 | B24 | 75.8 | 46.8 | 1.62 |  |  | 
25 | B25 |  |  |  | 175 % of control He Ab (=100) | 97 % of control He Ab (=100) | 0.55
26 | B26 | 70.5 | 42.6 | 1.65 |  |  | 
27 | B27 |  |  |  | 193 % of control He Ab (=100) | 107 % of control He Ab (=100) | 0.55
28 | B28 |  |  |  | 133 % of control He Ab (=100) | 102 % of control He Ab (=100) | 0.77
29 | B29 | 130 | 96.3 | 1.35 |  |  | 
30 | B30 | 58.8 | 35.4 | 1.66 |  |  | 
31 | B31 | 91.4 | 73.1 | 1.25 |  |  | 
32 | B32 |  |  |  | 160 % of control He Ab (=100) | 112 % of control He Ab (=100) | 0.7
33 | B33 | 43.1 | 27.9 | 1.54 |  |  | 
34 | B34 |  |  |  | 167 % of control He Ab (=100) | 114 % of control He Ab (=100) | 0.68
35 | B35 | 38.1 | 6.3 | 6.06 |  |  | 

— patent publication US20180155451A1 (published 2018)
